Measured values: US20080182299A1

What was measured:
[1] = target: Mouse monoclonal antibody clone 13A3.G6.H1, lot #18881C, raised against CGEN3901 (SEQ ID NO:50); assay: antigen capture competitive ELISA format #4, repeatability tests
[2] = target: Mouse monoclonal antibody clone 13A3.G6.H1, lot #18881C, raised against CGEN3901 (SEQ ID NO:50); assay: antigen capture competitive ELISA format #4; coat CgenBNP_49; detector 13A3.G6.H1; free peptide spiked in serum as competitor
[3] = target: Mouse monoclonal antibody clone 13A3.G6.H1, lot #18881C, raised against CGEN3901 (SEQ ID NO:50); assay: antibody capture competitive ELISA format #5; coat 13A3.G6.H1; tracer biotin-labeled CgenBNP_29; unlabeled peptide as competitor

| Binder | LOD [1] [ng/mL] | LOD [2] [ng/mL] | LOD [3] [ng/mL] |
| --- | --- | --- | --- |
| AEGSSGGLDSSNERVLTCCPKRPSSFLWN [AEWN 29 (also called herein CgenBNP_29, SEQ ID NO: 48)] | 1 to 3 | 0.3 | 5 |
| H-HPLGSPGSASDLETSGLQVRAEGSSGGLDSSNERVLTCCPKRPSSFLWN-OH (cysteine pairing not given here) [HPWN49 (also called herein CgenBNP_49, SEQ ID NO: 49)] | 1 to 3 | 0.6 |  |
